Results taken from US20090170126A1.
One block for each molecule: values may come before it. Ends that are not written are not given here.

Key:
[1] = molecular target: commercially available anti-prostasin mouse monoclonal antibody (BD Biosciences, catalog No. 612173); assay: competitive immunoassay, commercial monoclonal antibody-immobilized plate; competitor POD-labeled recombinant full-length prostasin 6.4 µg/mL; unlabeled recombinant full-length prostasin 0 ng/mL
[2] = molecular target: commercially available anti-prostasin mouse monoclonal antibody (BD Biosciences, catalog No. 612173); assay: competitive immunoassay, commercial monoclonal antibody-immobilized plate; competitor POD-labeled recombinant full-length prostasin 6.4 µg/mL; unlabeled recombinant full-length prostasin 5 ng/mL
[3] = molecular target: commercially available anti-prostasin mouse monoclonal antibody (BD Biosciences, catalog No. 612173); assay: competitive immunoassay, commercial monoclonal antibody-immobilized plate; competitor POD-labeled recombinant full-length prostasin 6.4 µg/mL; unlabeled recombinant full-length prostasin 10 ng/mL
[4] = molecular target: commercially available anti-prostasin mouse monoclonal antibody (BD Biosciences, catalog No. 612173); assay: competitive immunoassay, commercial monoclonal antibody-immobilized plate; competitor POD-labeled recombinant full-length prostasin 6.4 µg/mL; unlabeled recombinant full-length prostasin 25 ng/mL
[5] = molecular target: commercially available anti-prostasin mouse monoclonal antibody (BD Biosciences, catalog No. 612173); assay: competitive immunoassay, commercial monoclonal antibody-immobilized plate; competitor POD-labeled recombinant full-length prostasin 6.4 µg/mL; unlabeled recombinant full-length prostasin 50 ng/mL
[6] = molecular target: commercially available anti-prostasin mouse monoclonal antibody (BD Biosciences, catalog No. 612173); assay: competitive immunoassay, commercial monoclonal antibody-immobilized plate; competitor POD-labeled recombinant full-length prostasin 6.4 µg/mL; unlabeled recombinant full-length prostasin 100 ng/mL
[7] = molecular target: affinity-purified antibody (c); assay: competitive immunoassay, antibody (c)-immobilized plate; competitor POD-labeled partial peptide (c) 0.35 µg/mL; unlabeled peptide (c) 0 ng/mL
[8] = molecular target: affinity-purified antibody (c); assay: competitive immunoassay, antibody (c)-immobilized plate; competitor POD-labeled partial peptide (c) 0.35 µg/mL; unlabeled peptide (c) 5 ng/mL
[9] = molecular target: affinity-purified antibody (c); assay: competitive immunoassay, antibody (c)-immobilized plate; competitor POD-labeled partial peptide (c) 0.35 µg/mL; unlabeled peptide (c) 10 ng/mL
[10] = molecular target: affinity-purified antibody (c); assay: competitive immunoassay, antibody (c)-immobilized plate; competitor POD-labeled partial peptide (c) 0.35 µg/mL; unlabeled peptide (c) 25 ng/mL
[11] = molecular target: affinity-purified antibody (c); assay: competitive immunoassay, antibody (c)-immobilized plate; competitor POD-labeled partial peptide (c) 0.35 µg/mL; unlabeled peptide (c) 50 ng/mL
[12] = molecular target: affinity-purified antibody (c); assay: competitive immunoassay, antibody (c)-immobilized plate; competitor POD-labeled partial peptide (c) 0.35 µg/mL; unlabeled peptide (c) 100 ng/mL
[13] = molecular target: affinity-purified antibody (e); assay: competitive immunoassay, antibody (e)-immobilized plate; competitor POD-labeled partial peptide (e) 0.30 µg/mL; unlabeled peptide (e) 0 ng/mL
[14] = molecular target: affinity-purified antibody (e); assay: competitive immunoassay, antibody (e)-immobilized plate; competitor POD-labeled partial peptide (e) 0.30 µg/mL; unlabeled peptide (e) 5 ng/mL
[15] = molecular target: affinity-purified antibody (e); assay: competitive immunoassay, antibody (e)-immobilized plate; competitor POD-labeled partial peptide (e) 0.30 µg/mL; unlabeled peptide (e) 10 ng/mL
[16] = molecular target: affinity-purified antibody (e); assay: competitive immunoassay, antibody (e)-immobilized plate; competitor POD-labeled partial peptide (e) 0.30 µg/mL; unlabeled peptide (e) 25 ng/mL
[17] = molecular target: affinity-purified antibody (e); assay: competitive immunoassay, antibody (e)-immobilized plate; competitor POD-labeled partial peptide (e) 0.30 µg/mL; unlabeled peptide (e) 50 ng/mL
[18] = molecular target: affinity-purified antibody (e); assay: competitive immunoassay, antibody (e)-immobilized plate; competitor POD-labeled partial peptide (e) 0.30 µg/mL; unlabeled peptide (e) 100 ng/mL
[19] = molecular target: affinity-purified antibody (a); assay: antibody (a)-immobilized plate; POD-labeled peptide (a) 0.05 µg/mL; unlabeled partial peptide (a) 0 ng/mL
[20] = molecular target: affinity-purified antibody (a); assay: antibody (a)-immobilized plate; POD-labeled peptide (a) 0.10 µg/mL; unlabeled partial peptide (a) 0 ng/mL
[21] = molecular target: affinity-purified antibody (a); assay: antibody (a)-immobilized plate; POD-labeled peptide (a) 0.15 µg/mL; unlabeled partial peptide (a) 0 ng/mL
[22] = molecular target: affinity-purified antibody (a); assay: antibody (a)-immobilized plate; POD-labeled peptide (a) 0.20 µg/mL; unlabeled partial peptide (a) 0 ng/mL
[23] = molecular target: affinity-purified antibody (a); assay: antibody (a)-immobilized plate; POD-labeled peptide (a) 0.25 µg/mL; unlabeled partial peptide (a) 0 ng/mL
[24] = molecular target: affinity-purified antibody (a); assay: antibody (a)-immobilized plate; POD-labeled peptide (a) 0.025 µg/mL; unlabeled partial peptide (a) 0 ng/mL
[25] = molecular target: affinity-purified antibody (a); assay: antibody (a)-immobilized plate; POD-labeled peptide (a) 0.05 µg/mL; competitor unlabeled partial peptide (a) 50 ng/mL
[26] = molecular target: affinity-purified antibody (a); assay: antibody (a)-immobilized plate; POD-labeled peptide (a) 0.10 µg/mL; competitor unlabeled partial peptide (a) 50 ng/mL
[27] = molecular target: affinity-purified antibody (a); assay: antibody (a)-immobilized plate; POD-labeled peptide (a) 0.15 µg/mL; competitor unlabeled partial peptide (a) 50 ng/mL
[28] = molecular target: affinity-purified antibody (a); assay: antibody (a)-immobilized plate; POD-labeled peptide (a) 0.20 µg/mL; competitor unlabeled partial peptide (a) 50 ng/mL
[29] = molecular target: affinity-purified antibody (a); assay: antibody (a)-immobilized plate; POD-labeled peptide (a) 0.25 µg/mL; competitor unlabeled partial peptide (a) 50 ng/mL
[30] = molecular target: affinity-purified antibody (a); assay: antibody (a)-immobilized plate; POD-labeled peptide (a) 0.025 µg/mL; competitor unlabeled partial peptide (a) 50 ng/mL
[31] = molecular target: affinity-purified antibody (a); assay: difference of absorbance between 0 and 50 ng/mL unlabeled partial peptide (a); antibody (a)-immobilized plate; POD-labeled peptide (a) 0.05 µg/mL
[32] = molecular target: affinity-purified antibody (a); assay: difference of absorbance between 0 and 50 ng/mL unlabeled partial peptide (a); antibody (a)-immobilized plate; POD-labeled peptide (a) 0.10 µg/mL
[33] = molecular target: affinity-purified antibody (a); assay: difference of absorbance between 0 and 50 ng/mL unlabeled partial peptide (a); antibody (a)-immobilized plate; POD-labeled peptide (a) 0.15 µg/mL
[34] = molecular target: affinity-purified antibody (a); assay: difference of absorbance between 0 and 50 ng/mL unlabeled partial peptide (a); antibody (a)-immobilized plate; POD-labeled peptide (a) 0.20 µg/mL
[35] = molecular target: affinity-purified antibody (a); assay: difference of absorbance between 0 and 50 ng/mL unlabeled partial peptide (a); antibody (a)-immobilized plate; POD-labeled peptide (a) 0.25 µg/mL
[36] = molecular target: affinity-purified antibody (a); assay: difference of absorbance between 0 and 50 ng/mL unlabeled partial peptide (a); antibody (a)-immobilized plate; POD-labeled peptide (a) 0.025 µg/mL

B1: partial peptide (c) of prostasin (peptide)
peptide: NCLYNIDAKPEEPHFVQED
absorbance (Abs) [7]: 1.09 Abs
absorbance (Abs) [8]: 1.08 Abs
absorbance (Abs) [9]: 1.11 Abs
absorbance (Abs) [10]: 1.12 Abs
absorbance (Abs) [11]: 0.938 Abs
absorbance (Abs) [12]: 0.943 Abs

B3: POD-labeled partial peptide (a) (peptide)
peptide: AHQLDSYSEDAKVSTLKDI
modifications: also: peroxidase (POD) label, attachment site not given here
absorbance (Abs) [19]: 0.815 Abs
absorbance (Abs) [20]: 1.41 Abs
absorbance (Abs) [21]: 2.04 Abs
absorbance (Abs) [22]: 2.4 Abs
absorbance (Abs) [23]: 2.91 Abs
absorbance (Abs) [24]: 0.418 Abs
absorbance (Abs) [25]: 0.477 Abs
absorbance (Abs) [26]: 0.809 Abs
absorbance (Abs) [27]: 1.25 Abs
absorbance (Abs) [28]: 1.5 Abs
absorbance (Abs) [29]: 1.99 Abs
absorbance (Abs) [30]: 0.231 Abs
ΔOD [absorbance (Abs)] [31]: 0.338 Abs
ΔOD [absorbance (Abs)] [32]: 0.596 Abs
ΔOD [absorbance (Abs)] [33]: 0.79 Abs
ΔOD [absorbance (Abs)] [34]: 0.901 Abs
ΔOD [absorbance (Abs)] [35]: 0.925 Abs
ΔOD [absorbance (Abs)] [36]: 0.187 Abs

Other lines, results leading:

absorbance (Abs) [1]: 1.18 Abs
absorbance (Abs) [2]: 1.21 Abs
absorbance (Abs) [3]: 1.19 Abs
absorbance (Abs) [4]: 1.12 Abs
absorbance (Abs) [5]: 1.09 Abs
absorbance (Abs) [6]: 1.22 Abs
Molecule: recombinant protein of full-length prostasin (prepared according to the method of Chen, L-M. et al., J. Biol. Chem., Vol. 276, pp. 21434-21442, 2001) (from UniProt Q16651 33-322) (enzyme)

absorbance (Abs) [13]: 1.97 Abs
absorbance (Abs) [14]: 1.96 Abs
absorbance (Abs) [15]: 1.62 Abs
absorbance (Abs) [16]: 1.55 Abs
absorbance (Abs) [17]: 1.41 Abs
absorbance (Abs) [18]: 1.49 Abs
B2: partial peptide (e) of prostasin (peptide)
peptide: PQTQESQPDSN
